Measured values as given in US20240317854A1 (Merck Sharp & Dohme, published 2024).

Target: T1, human immunoglobulin-like transcript 3 (ILT3) (human, UniProt Q8NHJ6 22-448)
T1 construct: whole, on cells; also called LILRB4; LIR5
Assay: receptor occupancy in blood samples of trial participants dosed in vivo (Q3W)

binding result: binds
B1: Humanized anti-ILT3 mAb (52B8 VH1 M64V/VL5 N34Q) IgG4 S228P/Kappa (antibody, V domains shown)
VH: EVQLVESGGGLVQPGGSLRLSCAASGFTFSNYGMSWVRQAPGKGLEWVATISGGGDYTNYPDSVRGRFTISRDNAKNSLYLQMNSLRAEDTAVYYCGRRLWFRSLYYAMDYWGQGTLVTVSS
VL: DIQLTQSPSSLSASVGDRVTITCRASEKVDSFGQSFMHWYQQKPGKAPKLLIYLTSNLDSGVPSRFSGSGSGTDFTLTISSLQPEDFATYYCQQNNEDPYTFGQGTKLEIKR
notes: also called mAb number 46; mAb No. 46
